According to US20180072806A1 (SHIRE HUMAN GENETIC THERAPIES, published 2018):

Legend:
[1] = target: T1, recombinant human soluble Flt-1 (human, UniProt P17948 27-758); assay: human competition ELISA with human sFlt-1 and VEGF; blocked ligand VEGF; antibody titrated
T1 construct: Recombinant soluble form (immunogen bought from ABCAM); also called human sFlt-1; sFlt-1

[2] = target: T1, recombinant human soluble Flt-1; assay: VEGF:sFlt1 binding assay (competition ELISA); blocked ligand VEGF; antibody titrated

T1 sequence (P17948 27-758 limits assumed): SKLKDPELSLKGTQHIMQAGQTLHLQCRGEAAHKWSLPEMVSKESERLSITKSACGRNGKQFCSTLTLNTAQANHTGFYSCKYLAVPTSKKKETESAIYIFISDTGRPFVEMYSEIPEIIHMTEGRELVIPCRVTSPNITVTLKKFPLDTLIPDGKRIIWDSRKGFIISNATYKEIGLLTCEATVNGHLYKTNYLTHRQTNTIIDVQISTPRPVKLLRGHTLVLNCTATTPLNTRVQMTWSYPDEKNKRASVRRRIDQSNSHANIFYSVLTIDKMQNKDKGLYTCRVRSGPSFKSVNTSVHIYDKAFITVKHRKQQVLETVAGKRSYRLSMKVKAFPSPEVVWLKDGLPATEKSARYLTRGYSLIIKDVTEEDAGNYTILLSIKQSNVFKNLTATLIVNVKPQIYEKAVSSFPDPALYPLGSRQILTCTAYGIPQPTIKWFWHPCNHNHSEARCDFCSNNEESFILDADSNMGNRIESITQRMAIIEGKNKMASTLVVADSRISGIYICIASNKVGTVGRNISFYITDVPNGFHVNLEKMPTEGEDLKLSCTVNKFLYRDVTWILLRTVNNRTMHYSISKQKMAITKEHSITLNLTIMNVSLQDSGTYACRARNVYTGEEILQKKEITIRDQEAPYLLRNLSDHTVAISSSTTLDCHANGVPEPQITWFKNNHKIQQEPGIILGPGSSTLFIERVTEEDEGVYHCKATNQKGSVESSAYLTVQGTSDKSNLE

| Binder | IC50 (read off the curve) [1] [ng/mL] | IC50 (read off the curve) [2] [ng/mL] |
| --- | --- | --- |
| anti-Flt-1 antibody 21B3 (antibody, V domains shown, VL is LC_21B3; IgG with wild-type Fc; also called 21B3 WT; clone 21B3) VH: ELQLVESGGGLVQPGGSLRLSCAASGFTFRDYSMSWVRQAPGKGLEWVSAISWNGDSTYYAESMKGRFTISRDNAKNTLYLQMNSLKSEDTAVYYCAKSWATPIESLYYYGMDYWGKGTLVTVSS VL: SYELTQSPSVSVALRQTAKITCGGNNIGSQTAQWYQQKPGQAPVLVIYANNRRPSGIPERFSGSKSGNTATLTISGAQAEDEADYYCQVWDGSTQAIVFGGGTHLTVL | ~3 | – |
| anti-Flt-1 antibody 27H9 (antibody, human IgG1, lambda, V domains shown, also called 27H9 WT; 27H9 WT 23/07) VH: EVQLLESGGGLVQPGGSLRLSCAASGFTFRDYSMSWVRQAPGKGLEWVSAISWNGDSTYYAESAKGRFTISRDNSKNTLYLQMNSLRAEDTAVYYCAKSWATPIESLYYYGSDYWGQGTLVTVSS VL: SYELTQPLSVSVALRQTARITCGGNNIGSQTAQWYQQKPGQAPVLVIYANNRRPSGIPERFSGSKSGNTATLTISRAQAEDEADYYCQVWDESTQAIVFGGGTKLTVLG | – | ~10 |
| anti-Flt-1 antibody 27H4 (antibody, human IgG1, lambda, V domains shown) VH: ELQLVESGGGLVQPGGSLRLSCAASGFTFRDYSMSWVRQAPGKGLEWVSAISWNGDSTYYAESLKGRFTISRDNAKNTLYLQMNSLRAEDTAVYYCAKSWATPIESLYYYGSDYWGQGTLVTVSS VL: SYELTQPLSVSVALGQTARITCGGNNIGSQTAQWYQQKPGQAPVLVIYANNRRPSGIPERFSGSKSGNTATLTISRAQAEDEADYYCQVWEDSTQAIVFGGGTKLTVLG | – | ~10 |
| anti-Flt-1 antibody 27H6 (antibody, human IgG1, lambda, V domains shown) VH: ELQLVESGGGLVQPGGSLRLSCAASGFTFSDYSASWVRQAPGKGLEWVSAISWSGDSTYYAESVKGRFTIFRDNSKNTLYLQMNSLRAEDTAVYYCAKSWATPIESLYYYGSDYWGQGTLVTVSS VL: SYELTQPLSVSVALRQAAKITCGGNNIGSQTAQWYQQKPGQAPVLVIYANNRRPSGIPERFSGSKSGNTATLTISRAQAGDEADYYCQVWDGSTQAIVFGGGTKLTVLG | – | ~6 |
